Earlier results on one substance are cited in paper PMC9238359.

Common to all, as to assay: ITC
(In general: ITC needs no label: the signal is the heat of the interaction.)

Data set [1] deals with STX4 soluble lacking N-terminal peptide (UniProt Q12846).
Another data set concerns the target STX4 N-terminal peptide (UniProt Q12846).
Another data set addresses STX4 soluble (lacks TMD) (UniProt Q12846).

Consider Munc18c (from UniProt O00186), for which the equilibrium dissociation constant (Kd) (as a rule, the concentration at which binding is half-saturated) in data set [1] was 735 nM; with STX4 N-terminal peptide, 1500 nM; with STX4 soluble (lacks TMD) it was 12 nM.
